In paper PMC3942315, “Structural Insights Into DNA Repair by RNase T—An Exonuclease Processing 3′ End of Structured DNA in Repair Pathways” (PLoS Biology, 2014):

Tests used:
[1] = biological target: the molecule itself; test: dynamic light scattering; purified recombinant proteins in solution; conditions not given
RNase T [2] = biological target: T1, RNase T (Escherichia coli (JM109 or K-12), UniProt P30014 1-215); test: EMSA; 30 mM EDTA, 10 mM EGTA; EMSA: 20 nM DNA, 0/5/50 uM protein, 100 mM NaCl, 30 mM EDTA, 10 mM EGTA, 50 mM Tris-HCl pH 7.0, 20 min, room temperature; conditions: protein: recombinant, tags: N-terminal His (pET-28a), chain copies: 2, label: 5'-32P, hairpin
T1 sequence: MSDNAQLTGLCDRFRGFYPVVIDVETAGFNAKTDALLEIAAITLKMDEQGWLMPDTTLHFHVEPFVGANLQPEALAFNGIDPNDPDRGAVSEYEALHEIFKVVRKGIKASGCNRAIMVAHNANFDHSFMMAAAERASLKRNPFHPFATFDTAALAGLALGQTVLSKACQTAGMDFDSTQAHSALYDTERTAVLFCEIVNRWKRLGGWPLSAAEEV

RNase T [3] = biological target: T1, RNase T; test: X-ray crystallography; 2 Mg2+ in active site; one DNA per protomer; 1.9 A; EMSA: 20 nM DNA, 0/5/50 uM protein, 100 mM NaCl, 30 mM EDTA, 10 mM EGTA, 50 mM Tris-HCl pH 7.0, 20 min, room temperature; conditions: protein: recombinant; tags: N-terminal His (pET-28a); chain copies: 2; Y structure (5' and 3' unpaired tails)

B1: RNase T (enzyme, E. coli, UniProt P30014 1-215, looked up)
chain: T1 sequence
notes: RNase T (rnt gene) of E. coli, full-length gene amplified from genomic DNA of JM109 or K-12 strains, cloned into NdeI/XhoI sites of pET-28a; Wild-type RNase T was used for crystallisation; also called rnt; DnaQ-like exonuclease RNase T; source: E. coli BL21-CodonPlus(DE3)-RIPL, purified (HiTrap TALON, HiTrap Heparin, Superdex 75)
[1]
  stoichiometry N: 2

B2: Stem-loop duplex DNA, 4-nt 3' overhang (structured_DNA)
DNA: GGCCCTCTTTAGGGCCTTAA
RNase T [2]; 3' overhang 4 nt
  binding result: binds

B3: Y-structured DNA, 3'-CC (crystal) (structured_DNA)
DNA: TTGGCCCTCTTTAGGGCCCC
RNase T [3]
  binding result: binds

B4: Stem-loop duplex DNA, 6-nt 3' overhang (structured_DNA)
DNA: GGCCCTCTTTAGGGCCTTATAA
RNase T [2]; 3' overhang 6 nt
  binding result: binds

B5: Stem-loop duplex DNA, 10-nt 3' overhang (structured_DNA)
DNA: GGCCCTCTTTAGGGCCAAGGGTTTAA
RNase T [2]; 3' overhang 10 nt
  binding result: binds
